Reference: publication PMC11305399, “FLT3/CD99 Bispecific Antibody–Based Nanoparticles for Acute Myeloid Leukemia” (Cancer Research Communications, 2024)

Target: Cluster of differentiation 99 (CD99) (Homo sapiens (Human)., UniProt P14209)
Experiment: cell-based or functional assay

Chain of Cluster of differentiation 99 (CD99) (P14209 23-185): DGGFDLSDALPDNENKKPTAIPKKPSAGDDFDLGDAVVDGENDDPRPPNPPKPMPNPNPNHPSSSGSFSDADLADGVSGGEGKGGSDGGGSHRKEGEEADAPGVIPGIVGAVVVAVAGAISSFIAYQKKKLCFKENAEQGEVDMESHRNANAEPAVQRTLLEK

B1: CD99-A192 (α-CD99 scFv fused to the amino-terminus of the elastin-like polypeptide A192) (scFv, V domains shown)
VH: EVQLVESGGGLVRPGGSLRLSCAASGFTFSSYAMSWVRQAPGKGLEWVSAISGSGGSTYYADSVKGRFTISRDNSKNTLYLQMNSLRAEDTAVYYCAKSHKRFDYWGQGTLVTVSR
VL: SSELTQDPAVSVALGQTVRITCQGDSLRSYYASWYQQKPGQAPVLVIYGKNNRPSGIPDRFSGSSSGNTASLTITGAQAEDEADYYCNSSFPRTSSVVFGGGTKLTVL
IC50 of cell viability (CCK-8) of MV4-11 cells, 72 hours: 400 nM | phospho-SRC in MV4-11 cells at 24 hours (western blot), 25 μmol/L CD99-A192 vs. A192: 11 fold
